For orientation: Kd means the free concentration of one partner at which half of the binding sites on the other are occupied at equilibrium, for simple one-to-one binding.

The target in test [1] is BAG3^P209L (recombinant) (human) (UniProt O95817). Nature of the test: ITC; NBD (100 μM) in the syringe titrated into 10 μM BAG3 in the cell; 25 mM HEPES, 5 mM MgCl2, 100 mM KCl, pH 7.5; 25 °C; one-site binding model. On the technique in general: In ITC the heat of successive injections is recorded.
Test [2] deals with BAG3^WT (recombinant) (human) (UniProt O95817). Described as above.
Chain of BAG3^WT (recombinant) (human) (O95817 whole entry): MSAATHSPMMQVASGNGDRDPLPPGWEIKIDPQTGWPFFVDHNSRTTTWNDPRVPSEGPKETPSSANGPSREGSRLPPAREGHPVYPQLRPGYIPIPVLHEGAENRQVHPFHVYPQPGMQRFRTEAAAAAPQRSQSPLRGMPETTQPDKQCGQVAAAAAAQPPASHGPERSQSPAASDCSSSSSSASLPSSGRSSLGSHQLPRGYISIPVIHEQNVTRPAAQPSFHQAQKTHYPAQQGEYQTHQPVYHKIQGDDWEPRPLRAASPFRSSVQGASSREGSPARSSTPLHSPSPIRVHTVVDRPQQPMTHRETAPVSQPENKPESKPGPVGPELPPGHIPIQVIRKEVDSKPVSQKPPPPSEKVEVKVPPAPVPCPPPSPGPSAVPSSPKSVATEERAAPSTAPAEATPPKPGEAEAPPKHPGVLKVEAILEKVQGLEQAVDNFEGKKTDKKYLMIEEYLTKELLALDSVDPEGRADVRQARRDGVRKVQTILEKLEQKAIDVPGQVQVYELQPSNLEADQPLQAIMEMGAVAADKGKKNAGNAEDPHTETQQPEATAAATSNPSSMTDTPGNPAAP
The target of test [3] is 5-carboxyfluorescein (5-FAM) labeled LVEALY tracer. Nature of the test: fluorescence polarisation (Δmp read-out, fluorescent peptide tracer). Particulars: 30 µM BAG3P209L; 30 µM BAG3WT; parent: est. 2; read off a plot. For orientation: Polarisation of emitted light reports the rotation of a fluorescent probe.

Chain of BAG3^WT (recombinant), O95817 P209L (O95817 whole entry P209L): as the sequence (O95817 whole entry) above, with P209L counted along it
Chain of BAG3^P209L (recombinant) (human) (O95817 whole entry P209L): as the sequence (O95817 whole entry) above, with P209L counted along it

Take “HSPA8^NBD (nucleotide-binding domain of HSPA8) (domain or fragment)”: the Kd in test [1] and in test [2] was 300 nM in each case.

As for BAG3^WT (recombinant), O95817 P209L, the response in test [3] is 54 Δmp.

For the origin of these results see PMC6297355.
